Results as given in EP4591887A1, “GPC3 ANTIBODY-DRUG CONJUGATE AND USE THEREOF” (priority 2022, dated 2024).

Assays:
[1] = molecular target: T1, human GPC3 (Glypican-3) (human, UniProt P51654 25-580); test: cell-based or functional assay
[2] = molecular target: T1, human GPC3 (Glypican-3); test: FACS on Huh-7 cells
[3] = molecular target: T1, human GPC3 (Glypican-3); test: cell-based or functional assay; remark: listed apart in the source
[4] = molecular target: T1, human GPC3 (Glypican-3); test: FACS on HepG2 cells
[5] = molecular target: T1, human GPC3 (Glypican-3); test: FACS on CHO-K1 cells overexpressing human GPC3 (GPC3-CHO-K1)
[6] = molecular target: T1, human GPC3 (Glypican-3); test: cell-based or functional assay; remark: listed apart in the source
[7] = molecular target: T1, human GPC3 (Glypican-3); test: FACS on HepG2 cells, top of the fitted fluorescence curve
[8] = molecular target: T1, human GPC3 (Glypican-3); test: FACS on HepG2 cells; remark: listed apart in the source

B1: Hu 52H5D3B8-7 (antibody, human IgG1, kappa, V domains shown)
VH: EVQLVQSGAEVKKPGASVKVSCKASGYTFTDYEMHWVRQAPGQGLEWMGAIHPGSGGTAYNQKFKGRVTMTADKSISTAYMELSRLRSDDTAVYYCTRFYSYAYWGQGTLVTVSS
VL: DVVMTQTPLSLSVTPGQPASISCRSSQSLVHSNGNTYLQWYLQKPGQSPQLLIYKVSNRFSGVPDRFSGSGSGTDFTLKISRVEAEDVGVYYCSQSIHVPYTFGGGTKVEIKR
notes: also called humanized GPC3 antibody Hu 52H5D3B8-7
[1]
  Percentage reduction of GPC3 on cell surface (%), Huh7 cells, 2 h at 37°C against ice, FACS: 64.4%
[2]
  EC50: 0.464 nM
[3]
  internalization on HepG2 cells (pHAb dye-labelled anti-hIgG secondary antibody, 48 h): EC50: 0.72 µg/mL
  internalization on HepG2 cells (pHAb dye-labelled anti-hIgG secondary antibody, 48 h): Top: 58600
[4]
  EC50: 0.405 nM
[5]
  EC50: 0.446 nM

B2: Hu 52H5D3B8-8-L3-D3 (antibody, human IgG1, kappa, V domains shown)
VH: EVQLVQSGAEVKKPGASVKVSCKASGYTFTDYEMHWVRQAPGQGLEWMGAIHPGSGGTAYNQKFKGRVTMTADKSISTAYMELSRLRSDDTAVYYCTRFYSYAYWGQGTLVTVSS
VL: DVVMTQTPLSLSVTPGQPASISCRSSQSLVHSNGNTYLQWYLQKPGQSPQLLIYKVSNRFSGVPDRFSGSGSGTDFTLKISRVEAEDVGVYFCSQSIHVPYTFGGGTKVEIKR
modifications: MA-PEG4-VC-PAB-DMEA-Duocarmycin SA (L3-D3) on cysteine thiols freed by TCEP reduction of disulfide bonds; positions not given
[1]
  Percentage reduction of GPC3 on cell surface (%), Huh7 cells, 2 h at 37°C against ice, FACS: 65%
[6]
  EC50 value of cytotoxicity, Huh7 cells (96 h, PrestoBlue): 0.0274 µg/mL

B3: Hu 52H5D3B8-7/8 CDRs with Y035 FRs (antibody, V domains shown)
VH: EVQLVQSGAEVKKPGASVKVSCKASGYTHSDYEMHWVRQAPGQGLEWMGAIHPGSGGTAYNQKFKGRVTITADKSTSTAYMELSSLRSEDTAVYYCARFYSYAYWGQGTLVTVSA
VL: DIVMTQTPLSLPVTPGEPASISCRSSQSLVHSNGNTYLQWYLQKPGQSPQLLIYKVSNRFSGVPDRFSGSGSGTDFTLKISRVEAEDVGVYYCSQSIHVPYTFGQGTKLEIKR
[2]
  EC50: 0.782 nM
[3]
  internalization on HepG2 cells (pHAb dye-labelled anti-hIgG secondary antibody, 48 h): EC50: 1.14 µg/mL
  internalization on HepG2 cells (pHAb dye-labelled anti-hIgG secondary antibody, 48 h): Top: 59200
[4]
  EC50: 0.769 nM
[5]
  EC50: 0.763 nM

B4: Hu 52H5D3B8-7-L1-D1 (antibody, human IgG1, kappa, V domains shown)
VH: EVQLVQSGAEVKKPGASVKVSCKASGYTFTDYEMHWVRQAPGQGLEWMGAIHPGSGGTAYNQKFKGRVTMTADKSISTAYMELSRLRSDDTAVYYCTRFYSYAYWGQGTLVTVSS
VL: DVVMTQTPLSLSVTPGQPASISCRSSQSLVHSNGNTYLQWYLQKPGQSPQLLIYKVSNRFSGVPDRFSGSGSGTDFTLKISRVEAEDVGVYYCSQSIHVPYTFGGGTKVEIKR
modifications: MC-vc-PAB-MMAE (L1-D1) on cysteine thiols freed by TCEP reduction of disulfide bonds; positions not given
[1]
  Percentage reduction of GPC3 on cell surface (%), Huh7 cells, 2 h at 37°C against ice, FACS: 70.8%

B5: Y035 antibody (CARSGEN Therapeutics), humanized (antibody, V domains shown)
VH: EVQLVQSGAEVKKPGASVKVSCKASGYTHSDYEMHWVRQAPGQGLEWMGAIHPGSGDTAYNQRFKGRVTITADKSTSTAYMELSSLRSEDTAVYYCARFYSYAYWGQGTLVTVSA
VL: DIVMTQTPLSLPVTPGEPASISCRSSQSLVHSNGNTYLQWYLQKPGQSPQLLIYKVSNRFSGVPDRFSGSGSGTDFTLKISRVEAEDVGVYYCSQSIYVPYTFGQGTKLEIKR
[2]
  EC50: 1.18 nM
[3]
  internalization on HepG2 cells (pHAb dye-labelled anti-hIgG secondary antibody, 48 h): EC50: 1.08 µg/mL
  internalization on HepG2 cells (pHAb dye-labelled anti-hIgG secondary antibody, 48 h): Top: 52000
[4]
  EC50: 1.25 nM
[5]
  EC50: 1.46 nM

B6: Hu 52H5D3B8-8-ZLA (antibody, human IgG1, kappa, V domains shown)
VH: EVQLVQSGAEVKKPGASVKVSCKASGYTFTDYEMHWVRQAPGQGLEWMGAIHPGSGGTAYNQKFKGRVTMTADKSISTAYMELSRLRSDDTAVYYCTRFYSYAYWGQGTLVTVSS
VL: DVVMTQTPLSLSVTPGQPASISCRSSQSLVHSNGNTYLQWYLQKPGQSPQLLIYKVSNRFSGVPDRFSGSGSGTDFTLKISRVEAEDVGVYFCSQSIHVPYTFGGGTKVEIKR
modifications: ZLA linker-payload on cysteine thiols freed by TCEP reduction of disulfide bonds; positions not given
notes: Constant regions as for Hu 52H5D3B8-8; also called Hu 52H5D3B8-8 ADC; Anti-GPC3-ZLA
[1]
  Percentage reduction of GPC3 on cell surface (%), Huh7 cells, 2 h at 37°C against ice, FACS: 64.3%
[7]
  Top: 69100
[8]
  EC50: 0.0569 µg/mL
[6]
  EC50 value of cytotoxicity, HepG2 cells (96 h, PrestoBlue): 0.0391 µg/mL
  EC50 value of cytotoxicity, Huh7 cells (96 h, PrestoBlue): 0.00352 µg/mL

B7: Hu 52H5D3B8-7-L4-D4 (antibody, human IgG1, kappa, V domains shown)
VH: EVQLVQSGAEVKKPGASVKVSCKASGYTFTDYEMHWVRQAPGQGLEWMGAIHPGSGGTAYNQKFKGRVTMTADKSISTAYMELSRLRSDDTAVYYCTRFYSYAYWGQGTLVTVSS
VL: DVVMTQTPLSLSVTPGQPASISCRSSQSLVHSNGNTYLQWYLQKPGQSPQLLIYKVSNRFSGVPDRFSGSGSGTDFTLKISRVEAEDVGVYYCSQSIHVPYTFGGGTKVEIKR
modifications: MC-MMAF (L4-D4) on cysteine thiols freed by TCEP reduction of disulfide bonds; positions not given
[6]
  EC50 value of cytotoxicity, Huh7 cells (96 h, PrestoBlue): 0.00455 µg/mL

B8: Hu 52H5D3B8-8-L1-D1 (antibody, human IgG1, kappa, V domains shown)
VH: EVQLVQSGAEVKKPGASVKVSCKASGYTFTDYEMHWVRQAPGQGLEWMGAIHPGSGGTAYNQKFKGRVTMTADKSISTAYMELSRLRSDDTAVYYCTRFYSYAYWGQGTLVTVSS
VL: DVVMTQTPLSLSVTPGQPASISCRSSQSLVHSNGNTYLQWYLQKPGQSPQLLIYKVSNRFSGVPDRFSGSGSGTDFTLKISRVEAEDVGVYFCSQSIHVPYTFGGGTKVEIKR
modifications: MC-vc-PAB-MMAE (L1-D1) on cysteine thiols freed by TCEP reduction of disulfide bonds; positions not given
[1]
  Percentage reduction of GPC3 on cell surface (%), Huh7 cells, 2 h at 37°C against ice, FACS: 66.5%
[6]
  EC50 value of cytotoxicity, HepG2 cells (96 h, PrestoBlue): 0.0409 µg/mL
  EC50 value of cytotoxicity, Huh7 cells (96 h, PrestoBlue): 0.038 µg/mL

B9: Y035 CDRs with Hu 52H5D3B8-7 FRs (antibody, V domains shown)
VH: EVQLVQSGAEVKKPGASVKVSCKASGYTFTDYEMHWVRQAPGQGLEWMGAIHPGSGDTAYNQRFKGRVTMTADKSISTAYMELSRLRSDDTAVYYCTRFYSYAYWGQGTLVTVSS
VL: DVVMTQTPLSLSVTPGQPASISCRSSQSLVHSNGNTYLQWYLQKPGQSPQLLIYKVSNRFSGVPDRFSGSGSGTDFTLKISRVEAEDVGVYYCSQSIYVPYTFGGGTKVEIK
notes: built here from the pieces; detected with anti-human IgG
[2]
  EC50: 0.667 nM
[3]
  internalization on HepG2 cells (pHAb dye-labelled anti-hIgG secondary antibody, 48 h): EC50: 1.11 µg/mL
  internalization on HepG2 cells (pHAb dye-labelled anti-hIgG secondary antibody, 48 h): Top: 52200
[4]
  EC50: 0.611 nM
[5]
  EC50: 0.907 nM

B10: Hu 52H5D3B8-8-L4-D4 (antibody, human IgG1, kappa, V domains shown)
VH: EVQLVQSGAEVKKPGASVKVSCKASGYTFTDYEMHWVRQAPGQGLEWMGAIHPGSGGTAYNQKFKGRVTMTADKSISTAYMELSRLRSDDTAVYYCTRFYSYAYWGQGTLVTVSS
VL: DVVMTQTPLSLSVTPGQPASISCRSSQSLVHSNGNTYLQWYLQKPGQSPQLLIYKVSNRFSGVPDRFSGSGSGTDFTLKISRVEAEDVGVYFCSQSIHVPYTFGGGTKVEIKR
modifications: MC-MMAF (L4-D4) on cysteine thiols freed by TCEP reduction of disulfide bonds; positions not given
notes: Constant regions as for Hu 52H5D3B8-8; also called Hu 52H5D3B8-8 ADC; Anti-GPC3-L4-D4
[1]
  Percentage reduction of GPC3 on cell surface (%), Huh7 cells, 2 h at 37°C against ice, FACS: 63.4%
[7]
  Top: 72900
[8]
  EC50: 0.0693 µg/mL

B11: GC33 antibody (Chugai Pharmaceutical) (antibody, V domains shown)
VH: QVQLVQSGAEVKKPGASVKVSCKASGYTFTDYEMHWVRQAPGQGLEWMGALDPKTGDTAYSQKFKGRVTLTADKSTSTAYMELSSLTSEDTAVYYCTRFYSYTYWGQGTLVTVSS
VL: DVVMTQSPLSLPVTPGEPASISCRSSQSLVHSNGNTYLHWYLQKPGQSPQLLIYKVSNRFSGVPDRFSGSGSGTDFTLKISRVEAEDVGVYYCSQNTHVPPTFGQGTKLEIK
notes: Control antibody, prepared as in US 7919086 B2; Whole antibody; Detected with anti-human IgG
[1]
  Percentage reduction of GPC3 on cell surface (%), Huh7 cells, 2 h at 37°C against ice, FACS: 60%
[2]
  EC50: 0.953 nM
[7]
  Top: 64100
[8]
  EC50: 0.269 µg/mL
[4]
  EC50: 0.745 nM
[5]
  EC50: 0.956 nM

B12: GC33-L4-D4 (antibody, V domains shown)
VH: QVQLVQSGAEVKKPGASVKVSCKASGYTFTDYEMHWVRQAPGQGLEWMGALDPKTGDTAYSQKFKGRVTLTADKSTSTAYMELSSLTSEDTAVYYCTRFYSYTYWGQGTLVTVSS
VL: DVVMTQSPLSLPVTPGEPASISCRSSQSLVHSNGNTYLHWYLQKPGQSPQLLIYKVSNRFSGVPDRFSGSGSGTDFTLKISRVEAEDVGVYYCSQNTHVPPTFGQGTKLEIK
modifications: MC-MMAF (L4-D4) on cysteine thiols of the antibody freed by TCEP reduction of disulfide bonds; positions not given
notes: Whole antibody; also called GC33 ADC; Anti-GPC3-L4-D4
[1]
  Percentage reduction of GPC3 on cell surface (%), Huh7 cells, 2 h at 37°C against ice, FACS: 61.3%
[7]
  Top: 60200
[8]
  EC50: 0.112 µg/mL
[6]
  EC50 value of cytotoxicity, Huh7 cells (96 h, PrestoBlue): 0.00882 µg/mL

B13: GC33-L3-D3 (antibody, V domains shown)
VH: QVQLVQSGAEVKKPGASVKVSCKASGYTFTDYEMHWVRQAPGQGLEWMGALDPKTGDTAYSQKFKGRVTLTADKSTSTAYMELSSLTSEDTAVYYCTRFYSYTYWGQGTLVTVSS
VL: DVVMTQSPLSLPVTPGEPASISCRSSQSLVHSNGNTYLHWYLQKPGQSPQLLIYKVSNRFSGVPDRFSGSGSGTDFTLKISRVEAEDVGVYYCSQNTHVPPTFGQGTKLEIK
modifications: MA-PEG4-VC-PAB-DMEA-Duocarmycin SA (L3-D3) on cysteine thiols of the antibody freed by TCEP reduction of disulfide bonds; positions not given
[1]
  Percentage reduction of GPC3 on cell surface (%), Huh7 cells, 2 h at 37°C against ice, FACS: 59.9%
[6]
  EC50 value of cytotoxicity, Huh7 cells (96 h, PrestoBlue): 0.0694 µg/mL

B14: GC33-ZLA (antibody, V domains shown)
VH: QVQLVQSGAEVKKPGASVKVSCKASGYTFTDYEMHWVRQAPGQGLEWMGALDPKTGDTAYSQKFKGRVTLTADKSTSTAYMELSSLTSEDTAVYYCTRFYSYTYWGQGTLVTVSS
VL: DVVMTQSPLSLPVTPGEPASISCRSSQSLVHSNGNTYLHWYLQKPGQSPQLLIYKVSNRFSGVPDRFSGSGSGTDFTLKISRVEAEDVGVYYCSQNTHVPPTFGQGTKLEIK
modifications: ZLA linker-payload on cysteine thiols of the antibody freed by TCEP reduction of disulfide bonds; positions not given
notes: Whole antibody; also called GC33 ADC; Anti-GPC3-ZLA
[1]
  Percentage reduction of GPC3 on cell surface (%), Huh7 cells, 2 h at 37°C against ice, FACS: 59%
[7]
  Top: 68000
[8]
  EC50: 0.143 µg/mL
[6]
  EC50 value of cytotoxicity, HepG2 cells (96 h, PrestoBlue): 0.0892 µg/mL
  EC50 value of cytotoxicity, Huh7 cells (96 h, PrestoBlue): 0.0148 µg/mL
